According to patent US20250019451A1 (published 2025):
Changes are numbered by the printed parent chain. Like-named read-outs stand apart in the source and are kept apart here. Blank lines part the entries; values can stand above or below the binder they belong to.

How the values were obtained:
human CCR8 [1] = molecular target: T1, human CCR8 (UniProt P51685 1-355); test: FACS cell binding
human CCR8 [2] = molecular target: T1, human CCR8; test: CCL1 blocking
mouse CCR8 = molecular target: T2, mouse CCR8 (UniProt P56484 1-353); test: FACS cell binding
T2 chain: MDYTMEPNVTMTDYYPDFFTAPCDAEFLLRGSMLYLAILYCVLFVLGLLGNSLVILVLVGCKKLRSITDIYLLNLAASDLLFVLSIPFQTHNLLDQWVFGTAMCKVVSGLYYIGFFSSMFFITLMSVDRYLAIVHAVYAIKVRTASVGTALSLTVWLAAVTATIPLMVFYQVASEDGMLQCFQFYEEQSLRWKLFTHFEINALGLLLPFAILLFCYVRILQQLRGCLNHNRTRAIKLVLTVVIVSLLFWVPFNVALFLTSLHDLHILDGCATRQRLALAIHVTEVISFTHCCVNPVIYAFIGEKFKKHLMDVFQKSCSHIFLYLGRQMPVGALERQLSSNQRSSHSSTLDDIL

human CCR8 [3] = molecular target: T1, human CCR8; test: CCL1 blocking; remark: listed apart in the source
human CCR8 [4] = molecular target: T1, human CCR8; test: FACS cell binding; remark: listed apart in the source

EC50 (human CCR8 [1]): 0.86 nM
B1: HFB11-19 (antibody, V domains shown)
VH: QVQLQQSGAELVKPGASVKLSCKASGYTFTDYIIHWVKQRSGQGLEWIGWFSPRNNYVKYNERFTDKATLTADKSSNTVYMELSSLTSEDSAVYFCSRHGRNSIGFAYWGQGTLVTVSA
VL: DIVMTQAAPSVPVTPGESVSISCRSSKSLLNSNGNTYLYWFLQRPGQSPQLLIYRMSNLASGVPDRFSGSGSGTAFTLRISRVEAEDVGVYYCMQHLEYPYTFGGGTKLEIK

IC50 (human CCR8 [2]): 0.413 nM
EC50 (human CCR8 [1]): 0.49 nM
B2: HFB11-5 (antibody, V domains shown)
VH: EVQLVESGGGLVQPRGSLKLSCTASGFSFNAYAMNWVRQAPGKGLEWVARIRTKSNNYATYYADSVKDRFTISRDDSESMLYLQMKNLKTEDTAMYYCVRGGYGNGGYYFDYWGQGTTLTVSS
VL: B1 VL with P12T, V19A, N31H, S32R, T36S, M56I, Y101F, G105S

IC50 (human CCR8 [2]): 1.33 nM
EC50 (human CCR8 [1]): 0.98 nM
EC50 (mouse CCR8): 0.4 nM
B3: HFB11-2 (antibody, V domains shown)
VH: EVQLVESGGGLVQPKGSLKLSCAASGFSFNTYAMNWVRQAPGKGLEWVARIRSKSNNYATYYADSVKDRFTISRDDSERMLYLQMNNLKTEDTAMYYCVRGGSYYSNHYFDYWGQGTTLTVSS
VL: B1 VL with N31H, R55Q, Y101F, G105A, I111L

IC50 (human CCR8 [2]): 0.428 nM
IC50 (human CCR8 [3]): 0.428 nM
EC50 (human CCR8 [1]): 0.57 nM
B4: HFB11-10 (antibody, V domains shown)
VH: EVQLVETGGGLVQPKGSLKLSCAASGFRFNTNAMNWVRQAPGKDLEWVARIRSKSNNYATYYADSVKDRFTISRDDSQSMLYLQMNNVKTEDTAMYYCVRGSDNNYYYAMDYWGQGTSVTVSS
VL: B1 VL with N31H, Y101F, G105S

IC50 (human CCR8 [2]): 1.3 nM
EC50 (human CCR8 [1]): 1.63 nM
B5: HFB11-3 (antibody, V domains shown)
VH: EVQLVESGGGLVQPQGSLKLSCAASGFSFNTYAMNWVRQAPGKGLQWVARIRSKSNNYATYYADSVKDRFTISRDDSESMLYLQMNNLKTEDAAMYYCVRGKDANYFYAMDYWGQGTSVTVSS
VL: B1 VL with N31H, Y101F, G105A, I111L

IC50 (human CCR8 [2]): 0.452 nM
EC50 (human CCR8 [1]): 0.53 nM
B6: HFB11-8 (antibody, V domains shown)
VH: B4 VH with D44G, Y61H, A63V, I72V, V88L, T90A
VL: B1 VL with N31H, A75S, A85V, Y101F, G105S

EC50 (human CCR8 [4]): 0.37 nM
B7: HFB11-10 parental antibody (non-humanized) in ADCC enhanced format (antibody, V domains shown)
VH: B4 VH
VL: B1 VL with N31H, Y101F, G105S

EC50 (human CCR8 [1]): 9.05 nM
B8: HFB11-21 (antibody, V domains shown)
VH: QVQLQQPGAELVKPGASVKLSCKASGYTFISYWMHWVKQRPGRGLEWIGRIDPNSGKTKYNEKFKTKATLTVDKSSSTAYMHLNSLTSDDSAVYYCAREGWGDYWGQGTTLTVSS
VL: DIVLTQSPASLAVSLGQRATISCRASESVDNYGISFMHWYQQKPGQPPRLLIYRASNLASGIPARFSGSGSSTDFTLTINPVETDDIATYYCQQSNKDPRTFGGGTKLEIK
